The values below come from patent publication US20140370023A1 (HENRY M JACKSON FOUNDATION FOR THE ADVANCEMENT OF MILITARY …, published 2014).

Assay [1] has as its target T1, human FLi1 protein with N-terminal FLAG tag (human, UniProt Q01543 1-452, limits assumed).
T1 construct: not shown: N-terminal FLAG tag
T1 sequence (looked up): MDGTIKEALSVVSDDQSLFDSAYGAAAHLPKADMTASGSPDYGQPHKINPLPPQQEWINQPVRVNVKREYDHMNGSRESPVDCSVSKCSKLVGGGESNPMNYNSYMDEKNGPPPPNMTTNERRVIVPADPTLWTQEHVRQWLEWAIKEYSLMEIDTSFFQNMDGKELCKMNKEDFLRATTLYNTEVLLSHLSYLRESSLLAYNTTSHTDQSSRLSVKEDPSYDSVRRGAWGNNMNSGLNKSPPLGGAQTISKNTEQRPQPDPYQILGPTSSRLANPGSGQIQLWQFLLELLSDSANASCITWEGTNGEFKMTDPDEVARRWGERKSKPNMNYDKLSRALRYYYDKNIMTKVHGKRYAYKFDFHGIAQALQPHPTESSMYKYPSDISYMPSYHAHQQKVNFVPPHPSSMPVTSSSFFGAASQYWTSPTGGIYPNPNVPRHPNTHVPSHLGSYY
As to the kind of experiment: Western blot of transiently expressed FLAG-tagged protein. The protocol:
Therefore, the 9FY antibody was tested to see if it can discriminate between human ERG3 and the human FLi1 protein using Western blot assays. In this assay, transiently expressed human ERG3 (encoded by TMPRSS2/ERG3 construct) or human FLi1 protein was evaluated with the 9FY antibody.

Assay [2] deals with T2, human ERG3 (wild type ERG3 protein, 53 kDa) (human, UniProt P11308 1-479).
T2 construct: Expressed heterologously in HEK-293 cells (pIRES-EGFP(CMV)-ERG3), as protein lysate in the ELISA, or in LNCaP cells by Ad-ERG3 adenovirus; also called ERG3 antigen
T2 sequence: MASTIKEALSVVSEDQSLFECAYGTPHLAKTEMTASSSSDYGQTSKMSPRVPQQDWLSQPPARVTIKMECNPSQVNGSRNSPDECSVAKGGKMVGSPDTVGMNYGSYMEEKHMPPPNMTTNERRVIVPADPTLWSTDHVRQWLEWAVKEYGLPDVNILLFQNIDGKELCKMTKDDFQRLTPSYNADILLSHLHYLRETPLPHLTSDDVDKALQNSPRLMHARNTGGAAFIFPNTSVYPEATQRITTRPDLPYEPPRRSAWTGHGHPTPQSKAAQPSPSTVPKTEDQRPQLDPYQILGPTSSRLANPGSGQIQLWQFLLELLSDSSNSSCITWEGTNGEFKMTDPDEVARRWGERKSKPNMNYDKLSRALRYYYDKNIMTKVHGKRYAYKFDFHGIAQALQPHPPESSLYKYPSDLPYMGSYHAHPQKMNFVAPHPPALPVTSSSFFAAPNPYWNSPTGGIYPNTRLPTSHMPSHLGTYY
In words: sandwich ELISA on ERG3 protein lysate, 9FY titrated by fold dilution, absorbance at 450 nm; competitor: immunizing polypeptide. (In an ELISA, binding on a coated surface is turned into a signal by an enzyme label.)

Assay [3] concerns the target T3, immunizing polypeptide (amino acids 42-66 of SEQ ID NO: 1) (human).
T3 construct: Chemically synthesized; also called ERG 42-66 polypeptide
T3 peptide: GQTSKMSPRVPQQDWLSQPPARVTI
As to the kind of experiment: direct ELISA, peptides plated at 1 to 1000 ng/mL (x axis 'ERG, ng/mL', log scale), probed with 9FY at 1:10,000, absorbance at 450 nm. The protocol:
Various concentrations of the immunizing polypeptide and two control polypeptides were plated in wells for ELISA and were probed with 1:10,000 dilution of 9FY antibody. Y-axis indicates absorbance values at 450 nm. On the X-axis the log 10 concentration of the ERG immunizing polypeptide and control polypeptides is shown in ng/ml. […] In sandwich ELISA assay, ERG3 protein lysates were plated in multi-well format plates and were assayed with various concentrations of 9FY antibody in the presence (white bar) or absence of the immunizing polypeptide (shaded bar). Fold dilution is marked on the X-axis. Antibody titration values are marked by shaded bars.
In an ELISA assay, we assessed the sensitivity and specificity of the 9FY antibody measuring the titer of various concentrations of the immunizing polypeptide (i.e. amino acids 42-66 of SEQ ID NO: 1). For direct ELISA, plates were first coated with 100 μl of ERG3 antigen at 1 ng/ml, 10 ng/ml, 100 ng/ml and 1 μg/ml and incubated for 16 h at 4° C. on a shaker before washing the plate five times with PBSt (300 μl/well). […] Absorbance was measured at 450 nm on a […]® Ascent (Thermo Scientific, Waltham, Mass.) ELISA plate reader according to the manufacturer's recommendation and the absorbance were plotted against antibody dilution. […]

B1: 9FY antibody (monoclonal antibody produced by the hybridoma clone 9FY) (antibody, V domains shown)
VH: QIQLVQSGPDLKKPGETVKISCKASGYTFTNYGINWVKQAPGKGFKWMGWIDTYTGEPTYVDDFKGRFVFSLETSASTAYLQINNLKNEDTATYFCVRKRAYDYEIYWGQGTPLTVSS
VL: ENVLTQSPAIMSASLGEKVTLSCRASSSVYYMFWYQQKSDASPKLWIYYTSNLAPGVPARFSGSGSGNSYSLTISSVEGEDAATYYCLQFSTSPWTFGGGTKLEIKR
notes: Mouse (Balb/C) hybridoma antibody purified from ascites over Protein G; sub-type determined to be IgG; also called ERG-MAb; 9FY monoclonal antibody
For the molecule B1, the values for the binding result in assay [1], in assay [2] and in assay [3] were “no binding”, “binds” and “binds”, respectively.
